# In PMC3534050, “Simultaneous Single-Sample Determination of NMNAT Isozyme Activities in Mouse Tissues” (PLoS ONE, 2012):
# How the values were obtained:
# [1] = substrate: NC(=O)c1ccc[n+]([C@@H]2O[C@H](COP(=O)(O)O)[C@@H](O)[C@H]2O)c1; assay: C18-HPLC of NAD formed, nonlinear fit; type: biochemical, Mus musculus; details: co-substrate ATP, NMN 5–100 µM, HEPES/KOH pH 7.5, MgCl2, 37°C
# purified protein = substrate: Nc1ncnc2c1ncn2[C@@H]1O[C@H](COP(=O)(O)OP(=O)(O)OP(=O)(O)O)[C@@H](O)[C@H]1O; assay: purified protein; details: co-substrate NMN, ATP 25–175 µM, HEPES/KOH pH 7.5, MgCl2, 37°C
# [2] = substrate: NC(=O)c1ccc[n+]([C@@H]2O[C@H](COP(=O)(O)O)[C@@H](O)[C@H]2O)c1; assay: C18-HPLC of NAD formed, nonlinear fit; type: biochemical, Mus musculus; details: co-substrate ATP, NMN 5–100 µM, HEPES/KOH pH 7.5, MgCl2, 37°C; remark: listed apart in the source
# Source text: (§1) C18-HPLC of NAD formed, nonlinear fit on mNMNAT1
# [3] = substrate: Nc1ncnc2c1ncn2[C@@H]1O[C@H](COP(=O)(O)OP(=O)(O)OP(=O)(O)O)[C@@H](O)[C@H]1O; assay: C18-HPLC of NAD formed, nonlinear fit; type: biochemical, Mus musculus; details: co-substrate NMN, ATP 25–175 µM, HEPES/KOH pH 7.5, MgCl2, 37°C
# Source text: as §1
# [4] = substrate: NC(=O)c1ccc[n+]([C@@H]2O[C@H](COP(=O)(O)O)[C@@H](O)[C@H]2O)c1; assay: C18-HPLC of NAD formed, nonlinear fit; type: biochemical, Mus musculus; details: co-substrate ATP, NMN 5–100 µM, HEPES/KOH pH 7.5, MgCl2, 37°C; remark: listed apart in the source
# Source text: (§2) C18-HPLC of NAD formed, nonlinear fit on mNMNAT3
# [5] = substrate: Nc1ncnc2c1ncn2[C@@H]1O[C@H](COP(=O)(O)OP(=O)(O)OP(=O)(O)O)[C@@H](O)[C@H]1O; assay: C18-HPLC of NAD formed, nonlinear fit; type: biochemical, Mus musculus; details: co-substrate NMN, ATP 25–175 µM, HEPES/KOH pH 7.5, MgCl2, 37°C; remark: listed apart in the source
# Source text: as §2
protein,measurement,setting,value
"mNMNAT2 (Mus musculus) (protein, predicted mass 36668 Da) MTETTKTHVILLACGSFNPITKGHIQMFERARDYLHKTGRFIVIGGIVSPVHDSYGKQGLVSSRHRLIMCQLAVQNSDWIRVDPWECYQDTWQTTCSVLEHHRDLMKRVTGCILSNVNTPSMTPVIGQPQHENTQPIYQNSNVPTKPTAAKILGKVGESLSRICCVRPPVERFTFVDENANLGTVMRYEEIELRILLLCGSDLLESFCIPGLWNEADMEVIVGDFGIVVVPRDAADTDRIMNHSSILRKYKNNIMVVKDDINHPMSVVSSTKSRLALQHGDGHVVDYLSQPVIDYILKSQLYINASG",Km,[1],38.5 ± 13.5 µM
same,kcat,[1],2.87 ± 0.5 s⁻¹
same,kcat/Km,[1],70000 M⁻¹ s⁻¹
same,Km,purified protein,82.0 ± 15.1 µM
same,kcat,purified protein,2.33 s⁻¹
same,kcat/Km,purified protein,30000 M⁻¹ s⁻¹
"mNMNAT1 (Mus musculus) (protein, predicted mass 34518 Da) MDSSKKTEVVLLACGSFNPITNMHLRLFELAKDYMHATGKYSVIKGIISPVGDAYKKKGLIPAHHRIIMAELATKNSHWVEVDTWESLQKEWVETVKVLRYHQEKLATGSCSYPQSSPALEKPGRKRKWADQKQDSSPQKPQEPKPTGVPKVKLLCGADLLESFSVPNLWKMEDITQIVANFGLICITRAGSDAQKFIYESDVLWRHQSNIHLVNEWITNDISSTKIRRALRRGQSIRYLVPDLVQEYIEKHELYNTESEGRNAGVTLAPLQRNAAEAKHNHSTL",Km,[2],25.2 ± 5.6 µM
same,kcat,[2],15.5 ± 1.3 s⁻¹
same,kcat/Km,[2],610000 M⁻¹ s⁻¹
same,Km,[3],33.5 ± 5.1 µM
same,kcat,[3],15 ± 0.7 s⁻¹
same,kcat/Km,[3],450000 M⁻¹ s⁻¹
"mNMNAT3 (Mus musculus) (protein, predicted mass 29866 Da) MKNRIPVVLLACGSFNPITNMHLRLFEVARDHLHQTGRYQVIEGIISPVNDSYGKKDLVASHHRVAMARLALQTSDWIRVDPWESEQAQWMETVKVLRHHHRELLRSSAQMDGPDPSKTPSASAALPELKLLCGADVLKTFQTPNLWKDTHIQEIVEKFGLVCVSRSGHDPERYISDSPILQQFQHNIHLAREPVLNEISATYVRKALGQGQSVKYLLPEAVITYIRDQGLYINDGSWKGKGKTG",Km,[4],117.6 ± 4.6 µM
same,kcat,[4],0.75 ± 0.02 s⁻¹
same,kcat/Km,[4],10000 M⁻¹ s⁻¹
same,Km,[5],39.0 ± 5.9 µM
same,kcat,[5],0.74 ± 0.04 s⁻¹
same,kcat/Km,[5],20000 M⁻¹ s⁻¹
